Where a chain is given by its changes, count along the chain named.
What was measured:
[1] = target: T1, CCL15_HUMAN (Homo sapiens, UniProt Q16663); test: Biolayer interferometry (BLI) binding
T1 sequence (Q16663 22-113): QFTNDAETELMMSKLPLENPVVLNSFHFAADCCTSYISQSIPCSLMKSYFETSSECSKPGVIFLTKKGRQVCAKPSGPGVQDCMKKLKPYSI
In short: (§1)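 Ni-NTA biosensor loaded with His-tagged tick chemokine-binding protein; 300 nM chemokine cross-binding screen; hits repeated with chemokine dose series; Kd from fitted kinetic and equilibrium data.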

[2] = target: T2, CCL24_HUMAN (Homo sapiens, UniProt O00175); test: Biolayer interferometry (BLI) binding
T2 sequence (O00175 27-119): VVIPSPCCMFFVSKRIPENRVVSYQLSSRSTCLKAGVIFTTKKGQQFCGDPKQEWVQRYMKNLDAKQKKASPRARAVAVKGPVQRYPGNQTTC
In short: as §1

[3] = target: T3, CCL5_HUMAN (Homo sapiens, UniProt P13501); test: Biolayer interferometry (BLI) binding
T3 sequence (P13501 24-91): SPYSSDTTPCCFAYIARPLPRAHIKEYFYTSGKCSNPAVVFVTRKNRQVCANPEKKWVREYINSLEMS
In short: as §1

[4] = target: CCL3L1_HUMAN (Homo sapiens, UniProt P16619); test: Biolayer interferometry (BLI) binding
Sequence of CCL3L1_HUMAN (P16619 24-93): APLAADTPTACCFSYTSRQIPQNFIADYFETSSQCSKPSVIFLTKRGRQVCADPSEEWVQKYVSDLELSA
In short: as §1

[5] = target: T4, CCL27_HUMAN (Homo sapiens, UniProt Q9Y4X3); test: Biolayer interferometry (BLI) binding
T4 sequence (Q9Y4X3 25-112): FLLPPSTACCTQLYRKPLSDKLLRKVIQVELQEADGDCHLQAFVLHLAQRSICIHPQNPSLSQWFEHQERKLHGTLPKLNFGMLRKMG
In short: as §1

[6] = target: CCL7_HUMAN (Homo sapiens, UniProt P80098); test: Biolayer interferometry (BLI) binding
Sequence of CCL7_HUMAN (P80098 24-99): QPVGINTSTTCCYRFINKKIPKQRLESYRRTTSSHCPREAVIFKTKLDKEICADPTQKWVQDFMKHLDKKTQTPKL
In short: as §1

[7] = target: T5, CCL14_HUMAN (Homo sapiens, UniProt Q16627); test: Biolayer interferometry (BLI) binding
T5 sequence (Q16627 20-93): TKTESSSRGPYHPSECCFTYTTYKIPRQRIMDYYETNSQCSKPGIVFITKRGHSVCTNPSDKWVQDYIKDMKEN
In short: as §1

[8] = target: T6, CCL11_HUMAN (Homo sapiens, UniProt P51671); test: Biolayer interferometry (BLI) binding
T6 sequence (P51671 24-97): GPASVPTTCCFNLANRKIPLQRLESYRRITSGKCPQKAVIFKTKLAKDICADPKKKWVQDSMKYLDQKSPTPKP
In short: as §1

[9] = target: T7, CCL8_HUMAN (Homo sapiens, UniProt P80075); test: Biolayer interferometry (BLI) binding; details: read-out: Kd, CCL8_HUMAN
T7 sequence (P80075 24-99): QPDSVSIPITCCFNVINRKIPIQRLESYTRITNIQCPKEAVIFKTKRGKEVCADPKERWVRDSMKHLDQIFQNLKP
In short: as §1

[10] = target: T8, CCL18_HUMAN (Homo sapiens, UniProt P55774); test: Biolayer interferometry (BLI) binding
T8 sequence (P55774 21-89): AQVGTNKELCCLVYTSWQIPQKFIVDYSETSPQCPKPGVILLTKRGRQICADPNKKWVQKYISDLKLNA
In short: as §1

[11] = target: T9, CCL19_HUMAN (Homo sapiens, UniProt Q99731); test: Biolayer interferometry (BLI) binding
T9 sequence (Q99731 22-98): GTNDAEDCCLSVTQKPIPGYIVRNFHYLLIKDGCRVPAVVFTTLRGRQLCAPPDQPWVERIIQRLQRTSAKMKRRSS
In short: as §1

[12] = target: CCL13_HUMAN (Homo sapiens, UniProt Q99616); test: Biolayer interferometry (BLI) binding
Sequence of CCL13_HUMAN (Q99616 17-98): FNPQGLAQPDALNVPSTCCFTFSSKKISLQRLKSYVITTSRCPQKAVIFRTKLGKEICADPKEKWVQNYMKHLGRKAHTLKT
In short: as §1

[13] = target: T10, CCL22_HUMAN (Homo sapiens, UniProt O00626); test: Biolayer interferometry (BLI) binding
T10 sequence (O00626 25-93): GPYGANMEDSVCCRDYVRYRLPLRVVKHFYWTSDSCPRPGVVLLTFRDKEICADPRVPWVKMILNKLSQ
In short: as §1

[14] = target: T11, CCL4L1_HUMAN (Homo sapiens, UniProt Q8NHW4); test: Biolayer interferometry (BLI) binding
T11 sequence (Q8NHW4 24-92): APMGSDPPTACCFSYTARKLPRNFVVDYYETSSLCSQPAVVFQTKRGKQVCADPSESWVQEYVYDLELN
In short: as §1

[15] = target: T12, CCL4_HUMAN (Homo sapiens, UniProt P13236); test: Biolayer interferometry (BLI) binding
T12 sequence (P13236 24-92): T11 sequence (Q8NHW4 24-92) with G47S
In short: as §1

[16] = target: T13, CCL23_HUMAN (Homo sapiens, UniProt P55773); test: Biolayer interferometry (BLI) binding
T13 sequence (P55773 22-120): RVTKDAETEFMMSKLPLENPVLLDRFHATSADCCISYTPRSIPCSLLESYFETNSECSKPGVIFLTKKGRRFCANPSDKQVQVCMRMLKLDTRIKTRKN
In short: as §1

[17] = target: T3, CCL5_HUMAN; test: Yeast surface display (YSD) FACS binding
In short: (§2)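 Yeast clones displaying tick peptides were re-tested by FACS with labelled chemokine. Binding = % of peptide-expressing yeast above a background threshold set with streptavidin-Alexa647 alone; the mean percent shift was used where several clones were isolated. Confirmed binding ("YES") required >3-fold over background mean fluorescence intensity.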

[18] = target: T6, CCL11_HUMAN; test: Yeast surface display (YSD) FACS binding
In short: as §2

[19] = target: T8, CCL18_HUMAN; test: Yeast surface display (YSD) FACS binding
In short: as §2

[20] = target: CXCL12_HUMAN (Homo sapiens, UniProt P48061); test: Yeast surface display (YSD) FACS binding; details: yeast surface display
Sequence of CXCL12_HUMAN (P48061 22-93): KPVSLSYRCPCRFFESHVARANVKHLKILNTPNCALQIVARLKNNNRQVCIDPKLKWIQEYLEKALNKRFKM
In short: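 Yeast clones displaying tick peptides were re-tested by FACS with labelled chemokine detected by streptavidin-Alexa conjugate. Binding was scored as % of peptide-expressing cells above a background set with streptavidin-Alexa alone, averaged over independent clones. In the screen tables, >3-fold over background mean fluorescence intensity was scored as binding.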

[21] = target: T14, CCL1_HUMAN (Homo sapiens, UniProt P22362); test: Yeast surface display (YSD) FACS binding
T14 sequence (P22362 24-96): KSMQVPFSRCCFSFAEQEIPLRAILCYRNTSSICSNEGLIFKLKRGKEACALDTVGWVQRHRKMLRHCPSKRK
In short: as §2

B1: P991_AMBCA: tick CKBP, Amblyomma cajennense (protein)
chain: ENGEGTTQPDYDNSTDYYNYEDFKCTCPAPHLNNTNGTVMKPIGCYYTCNVTRCTAPDTYPCYNLTEHQAKNLTTSPTTLCAVGNCDHGICVPNGTKELCFKAPNLEE
modifications: Amblyomma cajennense
Kd [1]: 159 nM | Kd [2]: 6.54 nM | Kd [3]: 1.47 nM | Kd [4]: 1.4 nM | Kd [5]: 38.9 nM | Kd [6]: 0.514 nM | Kd [7]: 0.43 nM | Kd [8]: 3.43 nM | Kd [9]: 8.79 nM | Kd [10]: 0.209 nM | Kd [11]: 14.4 nM | Kd [12]: 0.419 nM | Kd [13]: 3.97 nM | Kd [14]: 0.827 nM | Kd [15]: 5.82 nM | Kd [16]: 5.58 nM

B2: P1029_AMBPA: tick CKBP, Amblyomma parvum; named P1209_AMBPA in Table 1 (protein, listed as Amblyomma parvum)
chain: KTDTKNAAGELPPKVAIPGCEDPATTKAPLPDDPRYYGVTIDKDGCQRKVLGSSQRQQRQVQNGRKPGRKGRGRRPVFVDLKLTVDCKRKCNGTYSQLPDGEPCLVCDGEPYGRHRTIKGGCYQGNCSSGQCHRGERKVNCYIPKNITNNVLNSVNLAE
Binding to CCL5_HUMAN, YSD [17]: YES (An arbitrary threshold of >3 fold over background mean fluorescence intensity was chosen to describe confirmed re-tests. Where binding was detected data are indicated as “YES”) | Binding to CCL11_HUMAN, YSD [18]: YES (An arbitrary threshold of >3 fold over background mean fluorescence intensity was chosen to describe confirmed re-tests. Where binding was detected data are indicated as “YES”) | Binding to CCL18_HUMAN, YSD [19]: YES (An arbitrary threshold of >3 fold over background mean fluorescence intensity was chosen to describe confirmed re-tests. Where binding was detected data are indicated as “YES”) | Binding to CXCL12_HUMAN, YSD [20]: YES (An arbitrary threshold of >3 fold over background mean fluorescence intensity was chosen to describe confirmed re-tests. Where binding was detected data are indicated as “YES”) | Binding to CCL1_HUMAN, YSD [21]: YES (An arbitrary threshold of >3 fold over background mean fluorescence intensity was chosen to describe confirmed re-tests. Where binding was detected data are indicated as “YES”)
